Test results: the supplement of paper PMC9170038

Tested on: K4 kissing-loop RNA reporter
Assay: apparent KD of K4 kissing-loop reporter; higher = weaker reporter binding
Settings: Eterna round: R107; input ligand: FMN 200 uM
Procedure: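 RNA-MaP round R107: designed RNA switches with theophylline, tryptophan, arginine or FMN aptamers are transcribed on-chip within common flanks. They are titrated with a labelled K4 kissing-loop RNA reporter in RNA-MaP buffer (100 mM Tris pH 7.5, 80 mM KCl, 4 mM MgCl2), without ligand or with the indicated ligand. Median apparent KD per design.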
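Further: bound reporter read as fluorescence of individual clusters on recovered sequencing chips by microscopy, with normalized cluster intensities fitted with a binding model.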

Sequence	apparent KD of K4 kissing-loop reporter [nM]
GUCUUACUAUAGGAUACCAGCAUGCAAGGAGUGAUGUUCCCGUCAUAUGAGGAGUACCGCUGCCCUUGGCAGCCUCUUGUAAGUU [theeternabot_sameState_KL_Theo_B_1]	502
GGAAUGCUGUAAGGAUAUCUCGGACGGUUACUCCGUUUCUCGCGUGUAAGAAUCUGAGUGAUGUUUAGAGAAGGUACGCUGGUUA [theeternabot_exclusion_KL_FMN_B_21]	178
CGGAUCGCAUCAGGAUAUCUCUCAUCAGUGAUGUUGGUGAAGCGUACGCGAAAGCGUACGCAGAUGAGAGAAGGGAUGCGAUCCG	467
CAAAUAAAUAUAAUUGAUAAGUGAUGUUGGCGAGGACCGGUACGGCCGCCACUCGAUAUCGGUCCAUUAACCGAGUGAUGUUUGG [Default title]	102
GCAACAUUGGGAGGAUAUCAUUCUGAGUGAUGUUCAGGGUUCAGCUAACGAAAGUUAGUUGUACCAUGAGAAGGUCUAAUGUUGC [Omei KL FMN B SS A v6]	342
GAGAAUCUAAUUGAUACCAGAGUAAGAACCAGUGAUGUUGGAAGAUUCCCUAAUAAAUAACUCCCUUGGCAGCGGAAGAGAAUAG [Totally accidental 2]	142
GGAUCCACCAGUGAUGUUGGAGAAAACUCUAAGGAUAUGACGAAAGUCAGAAGGUGGUAGACUGGACAAAGUCCGGUAGGAUCCA [FmnA10 U30+A78]	682
UGUGAUGUGUAGUGUUAUGUUUUGAGGGAUACCAGAGUGUUUUUAUUCCCUUGGCAGCUUGAGUGAUGUUUGAUGUUGUUGUUGU [knnumullin]	303
UACAGGGAUAGUGAUGUUAUCCCAUGUGAUACCAGUGCCAUCCAACACCCUUGGCAGCAUACGGGCAGUGAUGUUGUUCUUGGUA [#16 K4 Theophylline A Exclusion]	89.8
GCGCGUCAUGUCAGCGGUGACUACGUCGAUACCAGCAGGGAAACCUGCCCUUGGCAGCGACGCGCUGGAGUGAUGUUCCGACAGA [#2 Exclusion - Theophylline A Attempt #5 (HarryS)]	218
GUGCGGCUAGUGAUGUUGGUUGCGUGGGAAGGAGCGCAGAAACAUGCAGGUAGGUCGCCCACACCUCUGAAAGGAGGCUAAUUCA [Bisobi]	277
GUGGCACGAAAGUGCCACGCAUCCUCUGGCUAGGAUAUCUGGAAACAGAGAAGGAGCUCAUGAGUGAUGUUCAUCUAGAGGAUGC	827
AGUACAAUUGCGGCCGCCACUCAACGCAGAUCAAAGAUCUGCAUUCACUCAGUGAUGUUGAGUGAGAGGACCGGGCAUUUGUACA [Omei KL Tryp B SS B v2]	676
AGAAACUUGUAUACAGGGCAUGCCAGAGAUACCAGUCAAAUGGAAGGCCCUUGGCAGCUCAGGCGAGUGAUGUUCGCAGGCUGAC [Exclusion Theophylline A GF 20]	132
GCAUCCUAUGCAGGAUAUUAGCAUUUGAGUGAUGUUCAGACUAGCGAAAGCUAGUCAAUUGCUGGUUAAGAAGGGCAUAGGAUGC	891
UUCGGCCUGACGGCCGCCACUUUGGGUAGUGAUGUUACCAACAUUCACCAGAUACAGGUUACUUCAAGGACCGGGUCAGACGGUG [theeternabot_exclusion_KL_Trp_B_45]	104

Sequence	apparent KD of K4 kissing-loop reporter [nM]
AGACUACCACACUGUCAAUAGACAGUGAACUAGGAUAUGCUGAUAAGCAGAAGGAGUGAUGUUCCUUGGUAGUCAAUAAAAUAAU [FmnAX 13 U67]	308
GUCCACACUGCAGGAUAUGGAGAAAUAGCGAGGGAGCUUGGAAGCACGCCUCUGGCAGUGAUGUUGCCAGAAGGGCGGUGCGGCG [Dilazasole]	106
GGCCGCAAGGCGAGCGCUCCCACUCCGGAAGGAGCGCCCGUAAGGGCAGGUAGGUCGCCGGAGUGAUGUUCCGGUGGAGGGCUCG [#2 Exclusion - Arginine A Attempt #17 (Inspired by Omei)]	565
AGAGUCAGACAAAAGUCUGGCUCAGCCGAAGGAGCGUCCGAAAGGACAGGUAGGUCGCGGUUGCAUGAGUGAUGUUGAUGUUUUU [KL-SSArg-A23]	546
UGCUUUAGAAUACAAGGUAUUUACACUGAUACCAGUCAGUUAAAUGACCCUUGGCAGCAGUGUCAGUGAUGUUGACACAACACAU [Theo A Ex t4]	183
GUAUAUCGAACUGAUACCAGAGAAUAAAGCAGUGAUGUUGCAUAUAUAAAUAAGACUCGACUCCCUUGGCAGCGGGAAGAUAUAC [On purpose 1]	170
UAUUAAUUGUCAGGAUAUCGUAAUCGAGUGAUGUUCGAAUAUCGACGAUAGUCGAUAUUAUUUAUACGAGAAGGGACAUUAUUUA [JR_SSFMNB_Sub004]	366
AGUUCUUGCCGAAGGAGCGAGGCAGAGUGAUGUUCUGCAAAGAGGUCGAAAGACCUCCUGCCUCAGGUAGGUCGCGGCAUGAACA [Omei KL Arginine B Exc A v5]	814
AUGCGCGCGGCGGCCGCCACUCGCAUGAGAGUGAUGUUCUCGCCGUGCCCGCAAGGGUGCGGUGUGAGGACCGGGCCGGGCUGCG [#2 Same State - Tryptophan B Attempt #19 (HarryS)]	562
GCUGCCAUGGCAGGAUAUAUAAAUGCUGAGUGAUGUUCUGCAUCAUAUGUCCCUGACCGCGGCGGUGUAGAAGGGCCAUGGCAGC	135
UCCUGCAAUCAACCACGAAAGUGGUUCGAUACCAGAGUCGAAAGACUCCCUUGGCAGCGAGUGAUGUUCGAGCAGGUAAAAUAAA	862
GACAAUUCCGCUUCCGAGCAUACUUGACUGAAGGAUAUCAUCGUGUUGAGAAGGUCAGUAACAGAGAGUGAUGUUCUUUGAGGUC [theeternabot_sameState_KL_FMN_A_19]	242
AAGUAGCUCUCGGCCGCCACUCCUCAGUGAUGUUGAGAUUUUUUCUGCCAAUUGGCGUUUUUUUAGAGGACCGGGAGAGCUACAA [AK1 SS Tryptophan B]	332
UGGAGUUGACGAAAAGUCAACUCCUGAGAAGGAGCGGACGAAAGUCCAGGUAGGUCGCUCACUACCAGUGAUGUUGGUACUUAAA [#OpenEnded 4]	152
GGGCAUGAUACGAUAAAAUAGUGGAGAGAUACCAGCGUUUUAGAUCGCCCUUGGCAGCUCUCGAGUGAUGUUCGGGUAGCUCUGA [Onedra]	101
ACAAAAGUGAUGUUUUUGAACGUGCGCGAUACCAGAAAUGUCUUCUUCCCUUGGCAGCGCUAUUACUUGUAAGAAAGUACGUUUC [theeternabot_sameState_KL_Theo_A_17]	969

Same assay, conditions: Eterna round: R107; input ligand: arginine 13.2 mM

Sequence	apparent KD of K4 kissing-loop reporter [nM]
GUCUUACUAUAGGAUACCAGCAUGCAAGGAGUGAUGUUCCCGUCAUAUGAGGAGUACCGCUGCCCUUGGCAGCCUCUUGUAAGUU [theeternabot_sameState_KL_Theo_B_1]	253
GGAAUGCUGUAAGGAUAUCUCGGACGGUUACUCCGUUUCUCGCGUGUAAGAAUCUGAGUGAUGUUUAGAGAAGGUACGCUGGUUA [theeternabot_exclusion_KL_FMN_B_21]	233
CGGAUCGCAUCAGGAUAUCUCUCAUCAGUGAUGUUGGUGAAGCGUACGCGAAAGCGUACGCAGAUGAGAGAAGGGAUGCGAUCCG	763
CAAAUAAAUAUAAUUGAUAAGUGAUGUUGGCGAGGACCGGUACGGCCGCCACUCGAUAUCGGUCCAUUAACCGAGUGAUGUUUGG [Default title]	58.9
GCAACAUUGGGAGGAUAUCAUUCUGAGUGAUGUUCAGGGUUCAGCUAACGAAAGUUAGUUGUACCAUGAGAAGGUCUAAUGUUGC [Omei KL FMN B SS A v6]	975
GAGAAUCUAAUUGAUACCAGAGUAAGAACCAGUGAUGUUGGAAGAUUCCCUAAUAAAUAACUCCCUUGGCAGCGGAAGAGAAUAG [Totally accidental 2]	230
GGAUCCACCAGUGAUGUUGGAGAAAACUCUAAGGAUAUGACGAAAGUCAGAAGGUGGUAGACUGGACAAAGUCCGGUAGGAUCCA [FmnA10 U30+A78]	201
UGUGAUGUGUAGUGUUAUGUUUUGAGGGAUACCAGAGUGUUUUUAUUCCCUUGGCAGCUUGAGUGAUGUUUGAUGUUGUUGUUGU [knnumullin]	166
